The text below walks through data of PMC11542851.

Assay [1] addresses clade 1b RBDs (SARS-CoV-2-related sarbecoviruses), yeast-displayed. In words: flow cytometry on cells. On the technique in general: In flow cytometry, cells or beads pass a laser one at a time.
Assay [2] addresses clade 1a RBDs (SARS-CoV-1-related sarbecoviruses), yeast-displayed. In words: flow cytometry on cells.

B1: C68.61 (antibody, V domains shown)
VH: EVQLVQSGAEVKKPGESLKISCKGSAYIFTRYWIGWVRQMPGKGLEWMGIIYPGDSDTRYSPSFQGQVTISADKSISTAYLQWSSLKASDTAMYYCARSGTTNYFDYWGQGTLVTVSS
VL: DIQLTQSPSTLSASVGDRVTITCRASQSISSWLAWYQQKPGKAPKLLIYDASSLDSGVPSRFSGSGSGTDFTLTISSLQPDDFATYYCQQFNSYWTFGQGTKVEIK
Turning to B1, the values for the geomean EC50 across the clade in assay [1] and in assay [2] were 0.25 ng/mL and 1.9 ng/mL, respectively.
